Substrate in the data set: CC(=O)Oc1ccc([N+](=O)[O-])cc1
The experiment in a line: purified protein. The class given is biochemical, Evansstolkia leycettana. The conditions noted are these: optimal conditions, 55 °C, 20 mM citric acid-Na2HPO4 pH 6.0 (standard assay), free enzyme.

In general, Km refers to the concentration of substrate that gives half-maximal velocity. The Vmax is the rate approached at saturating substrate. A word on the kcat: it is the number of substrate molecules converted per active site and unit of time at saturation. Usually kcat/Km stands for the turnover number divided by the Michaelis constant.

B1: AXE + CBM1 (Evansstolkia leycettana) (protein)
chain: VAVDHDGARLARRITRGSLQQVTNFGSNPTNVGMYIYVPNNLATNPGIVVAIHYCTGSAQAYYSGSPYAQLAEQYGFIVIYPSSPYSGTCWDVSSQAALTHNGGGDSNSIANMVTWTISQFNADTSKVFVTGSSSGAMMTNVMAATYPELFAAATVYSGVPAGCFVSSTNQVDAWNSSCAQGQVIDTPAQWASVAENMYPGYTGPRPRMQIYHGSVDTTLYPQNYYETCKQWAGVFGYNYDSPQQTINNDPEANYQTTIWGPNLQGIFATGVGHTVPIHGTQDMEWFGFAGESTGGGTTTTSATTTTTSKPTSTTSSGGSTSTAVAQHWGQCGGIGWTGPTTCVSPYTCTFVNDYYYQCL
notes: mature full-length: hydrolase domain 20-309, S/T-rich linker 310-342, CBM1 343-380; signal peptide removed; no tag stated; pPIC9, secreted from Pichia pastoris GS115
As to B1, the Km is 500 ± 20 µM, the maximum rate (Vmax) was 455 µmol/min/mg, the kcat was determined as 306 ± 9 s⁻¹ and the kcat/Km is 612000 ± 12000 M⁻¹ s⁻¹.

B2: AXE (Evansstolkia leycettana) (protein)
chain: VAVDHDGARLARRITRGSLQQVTNFGSNPTNVGMYIYVPNNLATNPGIVVAIHYCTGSAQAYYSGSPYAQLAEQYGFIVIYPSSPYSGTCWDVSSQAALTHNGGGDSNSIANMVTWTISQFNADTSKVFVTGSSSGAMMTNVMAATYPELFAAATVYSGVPAGCFVSSTNQVDAWNSSCAQGQVIDTPAQWASVAENMYPGYTGPRPRMQIYHGSVDTTLYPQNYYETCKQWAGVFGYNYDSPQQTINNDPEANYQTTIWGPNLQGIFATGVGHTVPIHGTQDMEWFGFA
notes: hydrolase domain only, linker and CBM1 (310-380) removed; signal peptide removed; no tag stated; pPIC9, secreted from Pichia pastoris GS115
Consider B2, for which the Km is 720 ± 30 µM, the Vmax came to 625 µmol/min/mg, the kcat was determined as 326 ± 17 s⁻¹ and the kcat/Km was found to be 453000 ± 18000 M⁻¹ s⁻¹.

Values taken from article PMC6351639, “Synergistic effect of acetyl xylan esterase from Talaromyces leycettanus JCM12802 and xylanase from Neocallimastix patriciarum achieved by introducing carbohydrate-binding module-1” (AMB Express, 2019).
